Assay results from article PMC12785664, “Structure-Functional Examination of Cysteine Synthase A (CysK) from Limosilactobacillus reuteri LR1” (International Journal of Molecular Sciences, 2025).
One block for each compound: values may come before it.

Experiments:
[1] = molecular target: T1, LreCysK (cysteine synthase A from Limosilactobacillus reuteri LR1, His-tag at N-terminus) (Limosilactobacillus reuteri, UniProt A0ABF7PP24); assay: differential scanning calorimetry, with versus without added PLP; type: binding; conditions: 1.0 mM PLP, 0.1 M Na-phosphate pH 7.0, 1 °C/min; two calorimetric domains, domain 1 given
T1 construct: gene cysK
T1 sequence (A0ABF7PP24 2-307): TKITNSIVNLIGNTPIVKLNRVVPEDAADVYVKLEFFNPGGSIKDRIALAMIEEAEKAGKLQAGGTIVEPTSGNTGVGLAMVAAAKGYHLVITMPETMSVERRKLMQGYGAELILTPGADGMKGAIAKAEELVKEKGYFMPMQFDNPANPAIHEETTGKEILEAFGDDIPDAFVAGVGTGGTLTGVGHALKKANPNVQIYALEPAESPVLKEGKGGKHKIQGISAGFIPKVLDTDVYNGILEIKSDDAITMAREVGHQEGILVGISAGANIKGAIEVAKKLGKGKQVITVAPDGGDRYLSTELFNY
Excerpt: differential scanning calorimetry, with versus without added PLP on LreCysK (cysteine synthase A from Limosilactobacillus reuteri LR1, His-tag at N-terminus)

[2] = molecular target: Cysteine synthase A (CysK) from Limosilactobacillus reuteri LR1 with His-tag on the N-terminus (Limosilactobacillus reuteri LR1); assay: SEC; analytical gel filtration, HiLoad 16/600 Superdex 200 pg, 1 mg of sample, calibrated with Gel Filtration Calibration Kit HMW; monomer to dimer
CC(=O)OC[C@H](N)C(=O)O = assay: purified protein; conditions: saturating sulfide, 5 µM PLP, 10 mM HEPES pH 7.5
Excerpt: HILIC HPLC determination of cysteine, nonlinear regression on LreCysK (cysteine synthase A from Limosilactobacillus reuteri LR1, His-tag at N-terminus)

Compound: Cc1ncc(COP(=O)(O)O)c(C=O)c1O [Pyridoxal-5 phosphate]
Tm, °C [1]: 80.1 °C

stoichiometry N [2]: 2
Compound: Cysteine synthase A (CysK) from Limosilactobacillus reuteri LR1 with His-tag on the N-terminus (enzyme)

Compound: LreCysK (cysteine synthase A from Limosilactobacillus reuteri LR1, His-tag at N-terminus) (Limosilactobacillus reuteri)
Km (CC(=O)OC[C@H](N)C(=O)O): 3.8 ± 0.6 mM | kcat (CC(=O)OC[C@H](N)C(=O)O): 681 ± 45 s⁻¹ | kcat/Km (CC(=O)OC[C@H](N)C(=O)O): 179000 M⁻¹ s⁻¹
